Assay results from PMC9282883.

Target: SARS-CoV-2 RBD WT (for SPR binding assays) (SARS-CoV-2) (UniProt P0DTC2)

S309 IgG1 (antibody)
IC50, neutralisation of authentic SARS-CoV-2 (SARS-CoV-2-Nluc) on Vero E6 cells: 0.0789 µg/mL
IC90, neutralisation of authentic SARS-CoV-2 (SARS-CoV-2-Nluc) on Vero E6 cells: 0.3 µg/mL
